Source: article PMC4574351, “Tubulin cofactors and Arl2 are cage-like chaperones that regulate the soluble αβ-tubulin pool for microtubule dynamics” (eLife, 2015)

Tests used:
[1] = biological target: TBC-DEG:αβ-tubulin complex (S. cerevisiae | porcine) (UniProt P40987)
[2] = biological target: TBC-DEG complex (TBCD-TBCE-Arl2 GTPase heterotrimer) (S. cerevisiae) (UniProt P40987)
[3] = biological target: TBC-DEG complex (TBCD-TBCE-Arl2 GTPase heterotrimer) (S. cerevisiae) (UniProt P40987); remark: listed apart in the source
[4] = biological target: TBC-DEG complex (TBCD-TBCE-Arl2 GTPase heterotrimer) (S. cerevisiae) (UniProt P40987); test: SEC-MALS; WTC-03S5 column; purified TBC-DEG (subunits co-expressed and co-purified), αβ-tubulin, TBCC and their complexes; ternary complex with GDP·ALFx (wild type) or GTP (Q73L)

TBC-DEG complex (TBCD-TBCE-Arl2 GTPase heterotrimer) (S. cerevisiae), sequence (P40987 whole entry, chain 1 of 3): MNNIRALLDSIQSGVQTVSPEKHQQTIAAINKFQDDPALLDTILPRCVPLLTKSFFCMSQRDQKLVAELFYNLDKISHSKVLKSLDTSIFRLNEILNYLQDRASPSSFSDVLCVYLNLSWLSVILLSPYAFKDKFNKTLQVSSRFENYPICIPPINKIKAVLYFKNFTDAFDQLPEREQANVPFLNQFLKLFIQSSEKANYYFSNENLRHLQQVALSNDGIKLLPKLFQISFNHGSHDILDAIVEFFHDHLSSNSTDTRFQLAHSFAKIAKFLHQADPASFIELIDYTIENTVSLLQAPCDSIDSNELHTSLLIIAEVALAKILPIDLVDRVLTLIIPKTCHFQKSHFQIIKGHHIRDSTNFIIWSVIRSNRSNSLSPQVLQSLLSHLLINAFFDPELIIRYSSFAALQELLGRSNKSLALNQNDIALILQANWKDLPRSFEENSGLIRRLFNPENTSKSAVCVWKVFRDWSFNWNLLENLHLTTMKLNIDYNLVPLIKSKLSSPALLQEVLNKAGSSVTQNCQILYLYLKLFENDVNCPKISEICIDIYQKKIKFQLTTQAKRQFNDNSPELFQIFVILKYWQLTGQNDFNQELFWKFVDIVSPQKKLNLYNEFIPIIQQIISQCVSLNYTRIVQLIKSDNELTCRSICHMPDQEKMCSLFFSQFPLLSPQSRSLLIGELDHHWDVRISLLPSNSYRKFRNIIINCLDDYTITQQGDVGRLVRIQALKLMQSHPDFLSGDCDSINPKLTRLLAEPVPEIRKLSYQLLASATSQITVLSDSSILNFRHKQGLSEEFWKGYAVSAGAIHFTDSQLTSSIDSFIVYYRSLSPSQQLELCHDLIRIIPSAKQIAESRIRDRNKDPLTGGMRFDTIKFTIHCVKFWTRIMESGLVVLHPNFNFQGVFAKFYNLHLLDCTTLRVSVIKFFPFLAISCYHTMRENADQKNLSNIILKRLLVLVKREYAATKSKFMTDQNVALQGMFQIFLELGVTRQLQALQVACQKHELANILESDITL
TBC-DEG complex (TBCD-TBCE-Arl2 GTPase heterotrimer) (S. cerevisiae), sequence (P39937 whole entry, chain 2 of 3, further chain): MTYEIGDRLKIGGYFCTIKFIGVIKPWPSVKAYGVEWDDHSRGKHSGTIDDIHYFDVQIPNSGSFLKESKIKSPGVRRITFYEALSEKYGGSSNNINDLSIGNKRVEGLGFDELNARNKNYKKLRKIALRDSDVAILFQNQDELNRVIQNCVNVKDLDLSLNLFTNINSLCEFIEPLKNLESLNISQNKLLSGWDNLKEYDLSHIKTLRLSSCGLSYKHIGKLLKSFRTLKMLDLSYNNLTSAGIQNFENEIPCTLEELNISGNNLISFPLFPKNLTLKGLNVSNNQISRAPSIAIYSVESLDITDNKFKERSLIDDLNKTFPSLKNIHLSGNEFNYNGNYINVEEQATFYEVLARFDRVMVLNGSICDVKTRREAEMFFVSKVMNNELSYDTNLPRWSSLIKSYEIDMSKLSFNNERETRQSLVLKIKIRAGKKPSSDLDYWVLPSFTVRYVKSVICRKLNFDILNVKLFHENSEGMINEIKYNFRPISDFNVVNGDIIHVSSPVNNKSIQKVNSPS
TBC-DEG complex (TBCD-TBCE-Arl2 GTPase heterotrimer) (S. cerevisiae), sequence (P39110 whole entry, chain 3 of 3, further chain): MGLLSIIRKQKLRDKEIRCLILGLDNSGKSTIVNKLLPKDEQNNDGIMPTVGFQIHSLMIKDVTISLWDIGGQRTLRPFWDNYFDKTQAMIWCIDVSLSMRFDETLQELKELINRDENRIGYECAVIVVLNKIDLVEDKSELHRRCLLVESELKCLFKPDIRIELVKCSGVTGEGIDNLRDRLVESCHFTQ

## TBCC loop-deleted mutant Δ233-245 (from UniProt P46670 1-232; P46670 246-267) (natural protein)
[1]
  steady-state GTP hydrolysis kcat, 1 μM TBC-DEG:1 μM TBCC-Δ233-245:1 μM αβ-tub: 5670 M⁻¹ s⁻¹

## Tubulin cofactor C (TBCC), S. cerevisiae Cin2p (from UniProt P46670 1-268) (natural protein)
[2]
  steady-state GTP hydrolysis kcat (malachite green), 1 μM TBC-DEG:1 μM TBCC: 12800 M⁻¹ s⁻¹

## porcine brain αβ-tubulin dimer (from UniProt P02550 1-451; P02554 1-445) (complex)
[2]
  steady-state GTP hydrolysis kcat (malachite green), 1 μM TBC-DEG:1 μM αβ-tub: 6670 M⁻¹ s⁻¹
  steady-state GTP hydrolysis kcat, 1 μM TBC-DEG and 1 μM TBCC with αβ-tubulin titrated 0.25-3.0 μM (kcat 1.10 to 2.77): 46200 M⁻¹ s⁻¹
[3]
  steady-state GTP hydrolysis kcat at 3 μM αβ-tubulin, 1:3:1 TBCC:αβ-tubulin:TBC-DEG (number as in the text): 0.05 s⁻¹
[4]
  stoichiometry N: 1
